B1: TPR 5TU (parent)
chain: GGAUCUUCUCGAUCUAACAAAAAAGACAAAUCUGCCACAAAGCUUGAGAGCAUCUUCGGAUGCAGAGGCGGCAGCCUUCGGUGGCGCGAUAGCGCCAACGUUCUCAACUAUGACACGCAAAACGCGUGCUCCGUUGAAUGGAGUUUAUCAUG

This sample holds only a part of the variants without activity.

In this series the parent is B1. As to the kind of experiment: polymerase ribozyme fitness, log enrichment relative to wild type (log ratio); higher = more active; in vitro selection for triplet polymerase activity. The procedure, abridged: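 Libraries of mutants in each subunit of a heterodimeric triplet polymerase ribozyme were generated by PCR and transcribed. In triplicate, each went through one in vitro selection round: annealing with biotinylated primer, partner subunit and triplets; frozen incubation at −7 °C; gel excision of extended constructs; streptavidin-bead capture; RT-PCR. Fitness, taken from Illumina sequencing of input and output libraries, is the logarithm of a genotype's enrichment over wild-type enrichment, averaged across replicates with inverse-variance weights. The logarithm is base 2, and genotypes needed ≥10 input reads and ≥1 read per output to be kept.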
Consider C96U A138U, for which the “polymerase ribozyme fitness (log ratio)” value is not above -4.2. On to A21U A113C U127G C132U, for which the “polymerase ribozyme fitness (log ratio)” value was not above -4.2. U15G A89C A119U: the “polymerase ribozyme fitness (log ratio)” value was -0.888. The figure for U15G C85U C87A is not above -4.2; for A49U C57G U61A A73G G88C A97C U135A G152A it is not above -4.2.

With C8A U9C A30U C87U C95U C129A, the “polymerase ribozyme fitness (log ratio)” value was not above -4.2.

C27G C95A G141C: the “polymerase ribozyme fitness (log ratio)” value was -3.77. Consider C54A G67A G70C C72G A73C G74A C75G C87G C116G, for which the “polymerase ribozyme fitness (log ratio)” value is not above -4.2.

Take G112U G141A U148G: the “polymerase ribozyme fitness (log ratio)” value was not above -4.2. Regarding C5G U7A U33G A91G C93U C118G A122G U144G, the “polymerase ribozyme fitness (log ratio)” value was not above -4.2. In the case of C35G U139C, the “polymerase ribozyme fitness (log ratio)” value was not above -4.2.

For U9C U33G A52C C93G A110U, the “polymerase ribozyme fitness (log ratio)” value is not above -4.2. Take C32U C85U: the “polymerase ribozyme fitness (log ratio)” value was -1.97. For C38U A41G G58A, the “polymerase ribozyme fitness (log ratio)” value is 1.52. On to G58U C129G, for which the “polymerase ribozyme fitness (log ratio)” value was -2.47. A21C U45G C54G G143C: the “polymerase ribozyme fitness (log ratio)” value was not above -4.2.

For U53A C118G U144C, the “polymerase ribozyme fitness (log ratio)” value was -1.81. Take C51U G65C C87U: the “polymerase ribozyme fitness (log ratio)” value was not above -4.2. Under A23U G50C A122C G141C stands not above -4.2. Under A12C A23C C54A G81U G92C C99A stands not above -4.2; under A16G A22G C27A A49C C57U G59C C85U C118A C129U, not above -4.2; under A28U A30C C32A A47C G58C C85U A107U, not above -4.2. The figure for C10G C32A G86U G92C G124A A137G is not above -4.2; for G92C U101G it is -0.874.

Take G11A C54U U55A G74A A89G G92C C105G G112A U144G: the “polymerase ribozyme fitness (log ratio)” value is not above -4.2. Turning to C93A A120U, the “polymerase ribozyme fitness (log ratio)” value is -3.4. Under A17G C36G C79A C95U A97U G117U G126U stands -4.08; under A20G C27G G65U G81A G88A A138C G143U, not above -4.2. Under A16U C79G stands not above -4.2. Under C76A C93A stands -3.88; under C43A C96A U101G A150U, -4.16. Turning to A17U A73U C93U A120G, the “polymerase ribozyme fitness (log ratio)” value is -1.86. The figure for C85A C105U is -1.89; for U13G A29U C93U C129G it is not above -4.2; for U33G A37U A60C C75U G94U C108U it is not above -4.2. In the case of C27A C54G C105U, the “polymerase ribozyme fitness (log ratio)” value is not above -4.2. As for A37C A49C A91G G94A C96U A106G, the “polymerase ribozyme fitness (log ratio)” value was not above -4.2. The figure for A29G G58C A60C G71A C129G is not above -4.2; for G50C U130C it is -1.3.

In the case of C36U A60C C63U C103G, the “polymerase ribozyme fitness (log ratio)” value was not above -4.2. As for A30U A66G A115U G143A, the “polymerase ribozyme fitness (log ratio)” value is not above -4.2. Under A60U A89C stands -0.611. The figure for C18A G70A G84U U130G is not above -4.2; for A17G U33G C79G G84A U134G it is not above -4.2.

As to C10G G46A U55A G65A A73G U134A, the “polymerase ribozyme fitness (log ratio)” value was not above -4.2. Under A21C C35U C75U G92C C96A C108U C131U A142C stands not above -4.2; under G25C C57A C63A G92C A113C U134A, not above -4.2. The figure for U31G C54A C95A A142U is -3.34; for C8U C38G G92U C95U C99U U104A U145G it is not above -4.2. Under A3U U7A A37U G67U A91C G143A stands not above -4.2; under A12U A26C C36U, -3.95. Turning to A17G G86A, the “polymerase ribozyme fitness (log ratio)” value was -0.889.

As for C38G C54G U82C U146A, the “polymerase ribozyme fitness (log ratio)” value is -1.88. Turning to G70A C79A C87G C99U C105U A142G, the “polymerase ribozyme fitness (log ratio)” value is not above -4.2. The figure for U44G G46C A60C U61A C95U is not above -4.2; for A28G G58U it is not above -4.2; for C36G U56A G94U A97C A120U C125U it is not above -4.2. Under C38U C63U A73G C87U stands -0.21.

Take G58C G84U G136U: the “polymerase ribozyme fitness (log ratio)” value is -3.72. Under G34A U102G stands not above -4.2; under A28C C36U A39U U55A A66U C79U A91U C93A, not above -4.2; under C18G A29C C35A A89U G128A U144G, not above -4.2. The figure for A17U G65C A89U C93G G112C is not above -4.2. On to C93U C99U, for which the “polymerase ribozyme fitness (log ratio)” value was -2.8.

In the case of A98U A142U, the “polymerase ribozyme fitness (log ratio)” value was -2.98. In the case of A52C C87U, the “polymerase ribozyme fitness (log ratio)” value was -0.789. For the variant G25U G84U, the “polymerase ribozyme fitness (log ratio)” value was -3.64. In the case of A52C C54U G68A C93U C103A A106G A110U, the “polymerase ribozyme fitness (log ratio)” value was not above -4.2. As to U6C U31G G50C C69G G94C A119U U151A, the “polymerase ribozyme fitness (log ratio)” value was not above -4.2.

Regarding U56A C95A C103G C132A U146A, the “polymerase ribozyme fitness (log ratio)” value was not above -4.2.

Take U77G A89G C95G C105G C108G: the “polymerase ribozyme fitness (log ratio)” value is not above -4.2. Regarding G81A C118A U148C, the “polymerase ribozyme fitness (log ratio)” value is -2.6.

Take A22C A28U G58C A91C: the “polymerase ribozyme fitness (log ratio)” value was not above -4.2. Turning to C51A U82G C96U G143C, the “polymerase ribozyme fitness (log ratio)” value was not above -4.2. Under G128U A142C stands -3.6; under A22C C38U C69U C85U, -1.31. The figure for A19C C129G U148G is not above -4.2; for G86C C114U it is -3.9; for A40U C57U A89C C99G A119G it is -1.22. The figure for C14U G34U G68A C85U U144A C149A is not above -4.2; for U7A C8U A73G G81A G83A C96A A119U G124C it is not above -4.2; for A23C G62C C85G U134A U148C it is not above -4.2. For the variant C10U A16C A23U G62C A64G G83C U102G C114U U127G, the “polymerase ribozyme fitness (log ratio)” value was not above -4.2. The figure for C32A A89C C95A is not above -4.2.
